Measured values: patent publication US20250326796A1 (SHANGHAI UNIVERSITY, published 2025)

T1: STING (mouse, UniProt Q3TBT3 1-378)
T1 sequence (looked up): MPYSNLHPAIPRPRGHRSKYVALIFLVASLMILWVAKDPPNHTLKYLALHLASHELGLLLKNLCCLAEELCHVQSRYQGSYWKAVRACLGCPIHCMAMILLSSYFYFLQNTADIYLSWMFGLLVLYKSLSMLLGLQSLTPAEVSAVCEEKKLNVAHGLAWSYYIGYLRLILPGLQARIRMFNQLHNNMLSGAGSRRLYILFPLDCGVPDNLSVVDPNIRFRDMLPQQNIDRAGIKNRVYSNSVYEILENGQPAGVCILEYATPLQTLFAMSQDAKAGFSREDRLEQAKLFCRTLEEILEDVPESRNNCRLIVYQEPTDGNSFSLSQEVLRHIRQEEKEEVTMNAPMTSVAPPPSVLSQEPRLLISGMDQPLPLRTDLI


Target: T1, STING
Test: cell-based or functional assay

Row | Binder | IC50 for inhibiting Ifnb mRNA (RT-qPCR, RAW264.7 cells stimulated with 2'3'-cGAMP)
1 | NFNVAHGLAWSYYIGYLRLILPELQARIRTYNQHYNNLL (N-terminus acetylated (-Ac); C-terminus amidated (-NH2)) [SIP-10] | 66.3 µM
2 | NFNVAHGLAWSYYIGYLRLILPELQARIRTYN (N-terminus acetylated (-Ac); C-terminus amidated (-NH2)) [SIP-8] | 32.6 µM
3 | NFNVAHGLAWSYYIGYLRLILPELQARIRTYNQHYNNL (not fully specified; N-terminus acetylated (-Ac); C-terminus amidated (-NH2)) [SIP-9] | 41.9 µM
4 | Ac-NFNVAHGLAWSYYIGYLRLIL-NH2 (not fully specified) [SIP-6] | 35.3 µM
5 | Ac-NFNVAHGLAWSYYIG-NH2 (not fully specified) [SIP-5] | 28.5 µM
6 | NFNVAHGLAWSYYIGYLRLILPELQ (N-terminus acetylated (-Ac); C-terminus amidated (-NH2)) [SIP-7] | 18.9 µM
7 | NFNVAHGLAWSYYIGYLRLILPELQARIRTYNQHYNNLLR (N-terminus acetylated (-Ac); C-terminus amidated (-NH2)) [SIP-11] | 53.2 µM
8 | Ac-LAWSYYIGYLRL-NH2 [SIP-1] | 8.6 µM
